Positions count from the first letter of the chain named.
B1: anti-AFP158/HLA-A*02:01 abTCR with IgG1 CH1 domain (other)
heavy: EVQLVQSGAEVKKPGESLTISCKASGYSFPNYWITWVRQMSGGGLEWMGRIDPGDSYTTYNPSFQGHVTISIDKSTNTAYLHWNSLKASDTAMYYCARYYVSLVDIWGQGTLVTVSSASTKGPSVFPLAPSSKSTSGGTAALGCLVKDYFPEPVTVSWNSGALTSGVHTFPAVLQSSGLYSLSSVVTVPSSSLGTQTYICNVNHKPSNTKVDKRVEPKSCEVKTDSTDHVKPKETENTKQPSKSCHKPKAIVHTEKVNMMSLTVLGLRMLFAKTVAVNFLLTAKLFFL
light: QSVLTQPASVSGSPGQSITISCTGTSSDVGGYNYVSWYQQHPGKAPKLMIYDVNNRPSEVSNRFSGSKSGNTASLTISGLQAEDEADYYCSSYTTGSRAVFGGGTKLTVLGQPKANPTVTLFPPSSEELQANKATLVCLISDFYPGAVTVAWKADGSPVKAGVETTKPSKQSNNKYAASSYLSLTPEQWKSHRSYSCQVTHEGSTVEKTVAPTECSPIKTDVITMDPKDNCSKDANDTLLLQLTNTSAYYMYLLLLLKSVVYFAIITCCLLRRTAFCCNGEKS
B2: anti-AFP158/HLA-A*02:01 abTCR with IgG4 CH1 domain (other)
heavy: B1 heavy with S131C, K133R, G137E, G138S, Q196K, I199T, N203D, P217S, S219Y, C220G
light: B1 light
B3: anti-AFP158/HLA-A*02:01-abTCR-6MD (other)
chain 1: EVQLVQSGAEVKKPGESLTISCKASGYSFPNYWITWVRQMSGGGLEWMGRIDPGDSYTTYNPSFQGHVTISIDKSTNTAYLHWNSLKASDTAMYYCARYYVSLVDIWGQGTLVTVSSASTKGPSVFPLAPSSKSTSGGTAALGCLVKDYFPEPVTVSWNSGALTSGVHTFPAVLQSSGLYSLSSVVTVPSSSLGTQTYICNVNHKPSNTKVDKRVEPKSCEVKTDSTDHVKPKETENTKQPSKSCHKPKAIVHTEKVNMMSLTVLGLRMLFAKTVAVNFLLTAKLFFLYPYDVPDYA
chain 2: QSVLTQPASVSGSPGQSITISCTGTSSDVGGYNYVSWYQQHPGKAPKLMIYDVNNRPSEVSNRFSGSKSGNTASLTISGLQAEDEADYYCSSYTTGSRAVFGGGTKLTVLGQPKANPTVTLFPPSSEELQANKATLVCLISDFYPGAVTVAWKADGSPVKAGVETTKPSKQSNNKYAASSYLSLTPEQWKSHRSYSCQVTHEGSTVEKTVAPTECSPIKTDVITMDPKDNCSKDANDTLLLQLTNTSAYYMYLLLLLKSVVYFAIITCCLLRRTAFCCNGEKSDYKDHDGDYKDHDIDYKDDDDK
notes: also called anti-AFP158 abTCR
B4: anti-AFP158/HLA-A*02:01-abTCR-3 (other)
chain 1: EVQLVQSGAEVKKPGESLTISCKASGYSFPNYWITWVRQMSGGGLEWMGRIDPGDSYTTYNPSFQGHVTISIDKSTNTAYLHWNSLKASDTAMYYCARYYVSLVDIWGQGTLVTVSSASTKGPSVFPLAPSSKSTSGGTAALGCLVKDYFPEPVTVSWNSGALTSGVHTFPAVLQSSGLYSLSSVVTVPSSSLGTQTYICNVNHKPSNTKVDKRVEPKSCESSCDVKLVEKSFETDTNLNFQNLSVIGFRILLLKVAGFNLLMTLRLWSSDYKDHDGDYKDHDIDYKDDDDK
chain 2: QSVLTQPASVSGSPGQSITISCTGTSSDVGGYNYVSWYQQHPGKAPKLMIYDVNNRPSEVSNRFSGSKSGNTASLTISGLQAEDEADYYCSSYTTGSRAVFGGGTKLTVLGQPKANPTVTLFPPSSEELQANKATLVCLISDFYPGAVTVAWKADGSPVKAGVETTKPSKQSNNKYAASSYLSLTPEQWKSHRSYSCQVTHEGSTVEKTVAPTECSADCGFTSVSYQQGVLSATILYEILLGKATLYAVLVSALVLMAMVKRKDFYPYDVPDYA
B5: anti-AFP158/HLA-A*02:01-abTCR-6 (other)
chain 1: EVQLVQSGAEVKKPGESLTISCKASGYSFPNYWITWVRQMSGGGLEWMGRIDPGDSYTTYNPSFQGHVTISIDKSTNTAYLHWNSLKASDTAMYYCARYYVSLVDIWGQGTLVTVSSASTKGPSVFPLAPSSKSTSGGTAALGCLVKDYFPEPVTVSWNSGALTSGVHTFPAVLQSSGLYSLSSVVTVPSSSLGTQTYICNVNHKPSNTKVDKRVEPKSCDHVKPKETENTKQPSKSCHKPKAIVHTEKVNMMSLTVLGLRMLFAKTVAVNFLLTAKLFFLYPYDVPDYA
chain 2: QSVLTQPASVSGSPGQSITISCTGTSSDVGGYNYVSWYQQHPGKAPKLMIYDVNNRPSEVSNRFSGSKSGNTASLTISGLQAEDEADYYCSSYTTGSRAVFGGGTKLTVLGQPKANPTVTLFPPSSEELQANKATLVCLISDFYPGAVTVAWKADGSPVKAGVETTKPSKQSNNKYAASSYLSLTPEQWKSHRSYSCQVTHEGSTVEKTVAPTECSMDPKDNCSKDANDTLLLQLTNTSAYYMYLLLLLKSVVYFAIITCCLLRRTAFCCNGEKSDYKDHDGDYKDHDIDYKDDDDK
B6: anti-AFP158/HLA-A*02:01-abTCR-5 (other)
chain 1: QSVLTQPASVSGSPGQSITISCTGTSSDVGGYNYVSWYQQHPGKAPKLMIYDVNNRPSEVSNRFSGSKSGNTASLTISGLQAEDEADYYCSSYTTGSRAVFGGGTKLTVLGQPKANPTVTLFPPSSEELQANKATLVCLISDFYPGAVTVAWKADGSPVKAGVETTKPSKQSNNKYAASSYLSLTPEQWKSHRSYSCQVTHEGSTVEKTVAPTECSDHVKPKETENTKQPSKSCHKPKAIVHTEKVNMMSLTVLGLRMLFAKTVAVNFLLTAKLFFLYPYDVPDYA
chain 2: EVQLVQSGAEVKKPGESLTISCKASGYSFPNYWITWVRQMSGGGLEWMGRIDPGDSYTTYNPSFQGHVTISIDKSTNTAYLHWNSLKASDTAMYYCARYYVSLVDIWGQGTLVTVSSASTKGPSVFPLAPSSKSTSGGTAALGCLVKDYFPEPVTVSWNSGALTSGVHTFPAVLQSSGLYSLSSVVTVPSSSLGTQTYICNVNHKPSNTKVDKRVEPKSCMDPKDNCSKDANDTLLLQLTNTSAYYMYLLLLLKSVVYFAIITCCLLRRTAFCCNGEKSDYKDHDGDYKDHDIDYKDDDDK
B7: anti-AFP158/HLA-A*02:01-abTCR-4 (other)
chain 1: QSVLTQPASVSGSPGQSITISCTGTSSDVGGYNYVSWYQQHPGKAPKLMIYDVNNRPSEVSNRFSGSKSGNTASLTISGLQAEDEADYYCSSYTTGSRAVFGGGTKLTVLGQPKANPTVTLFPPSSEELQANKATLVCLISDFYPGAVTVAWKADGSPVKAGVETTKPSKQSNNKYAASSYLSLTPEQWKSHRSYSCQVTHEGSTVEKTVAPTECSESSCDVKLVEKSFETDTNLNFQNLSVIGFRILLLKVAGFNLLMTLRLWSSDYKDHDGDYKDHDIDYKDDDDK
chain 2: EVQLVQSGAEVKKPGESLTISCKASGYSFPNYWITWVRQMSGGGLEWMGRIDPGDSYTTYNPSFQGHVTISIDKSTNTAYLHWNSLKASDTAMYYCARYYVSLVDIWGQGTLVTVSSASTKGPSVFPLAPSSKSTSGGTAALGCLVKDYFPEPVTVSWNSGALTSGVHTFPAVLQSSGLYSLSSVVTVPSSSLGTQTYICNVNHKPSNTKVDKRVEPKSCADCGFTSVSYQQGVLSATILYEILLGKATLYAVLVSALVLMAMVKRKDFYPYDVPDYA

target: T1, PE-labeled AFP158/HLA-A*02:01 tetramer (human, biotinylated via the BSP peptide linked to the C-terminal end of the HLA-A*02:01 extracellular domain); experiment: flow cytometry, AFP158 tetramer binding on transduced T cells
T1 construct: monomers single chain; also called AFP158 tetramer; AFP158/HLA-A*02:01 tetramers; not shown: BSP peptide (BirA biotinylation site) at the C-terminus
Experimental: Primary human T-cells were used for transduction after one-day stimulation with CD3/CD28 beads (Dynabeads®, Invitrogen) in the presence of interleukin-2 (IL-2) at 100 U/ml. Concentrated lentiviruses were applied to T-cells in Retronectin-(Takara) coated 6-well plates for 96 hours. Transduction efficiencies of the anti-AFP and anti-CD19 chimeric constructs were assessed by flow cytometry, using biotinylated AFP158/HLA-A*02:01 tetramer (“AFP158 tetramer”) with PE-conjugated streptavidin or anti-myc antibody respectively. Repeat flow cytometry analyses were done on day 5 and every 3-4 days thereafter.
Specific lysis was measured after 16 hr incubation using the Cytox 96 Non-radioactive Cytotoxicity Assay (Promega).

| Binder | AFP 158 tetramer+ (percent) |
| --- | --- |
| B1 | 64.5 |
| B2 | 22.2 |

target: T1, PE-labeled AFP158/HLA-A*02:01 tetramer; experiment: flow cytometry; J.RT3-T3.5 cells transduced with the construct, stained with PE-labelled AFP158/HLA-A*02:01 tetramer

| Binder | % of cells in gate high [%] | % of cells in gate low [%] | % of cells in gate negative [%] |
| --- | --- | --- | --- |
| B3 | 24.2 | 13.8 | 63.4 |
| B4 | 5.68 |  | 19.5 |
| B5 | 8 | 5.35 | 87.2 |
| B6 | 9.41 | 4.98 | 86.1 |
| B7 | 0.928 | 19.1 | 80.1 |

target: T1, PE-labeled AFP158/HLA-A*02:01 tetramer; experiment: flow cytometry; Jurkat cells transduced with the construct, stained with PE-labelled AFP158/HLA-A*02:01 tetramer

| Binder | % of cells in gate high [%] | % of cells in gate low [%] | % of cells in gate negative [%] |
| --- | --- | --- | --- |
| B3 | 19 | 9.54 | 71.5 |
| B4 | 3.7 | 56.2 | 40.2 |
| B5 | 6.17 | 4.36 | 89.5 |
| B6 | 7.64 | 3.7 | 88.7 |
| B7 | 0.574 | 12.3 | 87.1 |
